# According to JPH06217786A:
# B1: 抗FHV−1キメラ抗体FH2 (cat-type anti-FHV-1 chimeric antibody FH2) (antibody, part only; not given: cat constant regions, part only)
# heavy, part: QVTLKESGPGILQPSQTLSLTCSFSGFSLSTSGMGAGWIRQPSGKGLEWLAHIWWDDVKRYNPALKSRLTISKDTSSSQVFLKIASVDTADTATYFCVRSQIYFDYDGAWFPFWGQGTLVTVSA
# light, part: DIVLTQSPATLSVTPGDSVSLSCRASQSISNNLHWYQQKSHESPRLLIKYASQSISGIPSRFSGSGSGTDFTLSINSVETEDFGMYFCQQSNSWPHTFGAGTKLELK
# Molecular target: FHV−1-K1ウイルス粒子 (feline herpesvirus-1, strain K1, virus particles; crude ammonium sulfate precipitate)
# Experiment: cell-based or functional assay
binder,measurement,value
B1,"最低有効中和濃度 (lowest effective neutralising concentration; 100 TCID50 FHV-1, CPE on CRFK cells)",1.95 µg/mL
